Results published in patent US20170224837A1.
Like-named read-outs stand apart in the source and are kept apart here. Blank lines part the entries; values can stand above or below the molecule they belong to.

Columns and labels:
[1] = molecular target: human Trop-2 (EGP-1, TACSTD2) on human tumor cells or tissues (human) (UniProt P09758); test: cell binding on NCI-N87 cells, anti-mouse-HRP, luminescence
[2] = molecular target: human Trop-2 (EGP-1, TACSTD2) on human tumor cells or tissues (human) (UniProt P09758); test: cell-based or functional assay
[3] = molecular target: recombinant human neonatal receptor (FcRn) (human) (UniProt P55899); test: SPR (BIACORE), FcRn chip
Chain of recombinant human neonatal receptor (FcRn) (human) (P55899 24-297 limits assumed): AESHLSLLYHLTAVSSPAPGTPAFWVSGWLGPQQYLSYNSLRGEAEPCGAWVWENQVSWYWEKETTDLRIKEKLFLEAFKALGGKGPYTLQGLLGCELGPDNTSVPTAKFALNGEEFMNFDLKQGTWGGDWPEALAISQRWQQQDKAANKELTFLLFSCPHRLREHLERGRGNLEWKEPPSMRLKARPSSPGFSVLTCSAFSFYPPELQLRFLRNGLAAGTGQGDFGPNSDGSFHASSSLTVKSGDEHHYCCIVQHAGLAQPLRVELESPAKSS

[4] = molecular target: rhTrop-2/TACSTD2 (Sino Biological, Inc.), recombinant human Trop-2 immobilized on CM5 chip (human) (UniProt P09758); test: SPR (BIACORE), low-density recombinant human Trop-2 chip, three runs
Chain of rhTrop-2/TACSTD2 (Sino Biological, Inc.), recombinant human Trop-2 immobilized on CM5 chip (human) (P09758 27-274 limits assumed): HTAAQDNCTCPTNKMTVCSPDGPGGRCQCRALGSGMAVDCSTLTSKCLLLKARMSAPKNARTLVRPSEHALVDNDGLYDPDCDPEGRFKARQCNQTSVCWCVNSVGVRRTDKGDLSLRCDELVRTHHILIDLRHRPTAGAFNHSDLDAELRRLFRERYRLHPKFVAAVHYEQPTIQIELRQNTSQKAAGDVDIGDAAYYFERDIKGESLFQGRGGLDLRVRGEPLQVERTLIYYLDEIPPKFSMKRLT

[5] = molecular target: human Trop-2 (EGP-1, TACSTD2) on human tumor cells or tissues (human) (UniProt P09758); test: cell binding assay; cell line not stated
[6] = molecular target: recombinant human neonatal receptor (FcRn) (human) (UniProt P55899); test: SPR (BIACORE), low-density FcRn chip, three runs at 400 to 25 nM
[7] = molecular target: rhTrop-2/TACSTD2 (Sino Biological, Inc.), recombinant human Trop-2 immobilized on CM5 chip (human) (UniProt P09758); test: SPR (BIACORE), Trop-2 chip
[8] = molecular target: human Trop-2 (EGP-1, TACSTD2) on human tumor cells or tissues (human) (UniProt P09758); test: cell-based or functional assay; remark: listed apart in the source
[9] = molecular target: Recombinant human Trop-2 with a His-tag (Sino Biological, Inc., Cat#10428-H09H) (human) (UniProt P09758); test: ELISA on Ni-NTA strips coated with His-tagged recombinant human Trop-2
Chain of Recombinant human Trop-2 with a His-tag (Sino Biological, Inc., Cat#10428-H09H) (human) (P09758 27-274 limits assumed): as above

Chain of human Trop-2 (EGP-1, TACSTD2) on human tumor cells or tissues (human) (P09758 27-323): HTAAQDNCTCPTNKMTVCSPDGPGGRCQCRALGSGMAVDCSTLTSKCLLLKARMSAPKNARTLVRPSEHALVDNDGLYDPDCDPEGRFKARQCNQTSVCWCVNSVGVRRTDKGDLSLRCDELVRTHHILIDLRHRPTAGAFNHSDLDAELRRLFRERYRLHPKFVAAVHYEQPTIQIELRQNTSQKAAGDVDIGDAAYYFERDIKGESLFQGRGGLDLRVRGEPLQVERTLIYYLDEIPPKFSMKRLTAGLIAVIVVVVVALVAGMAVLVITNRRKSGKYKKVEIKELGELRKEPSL

BMax (relative luminescent units) [1]: 8470
Kd [1]: 0.52 nM
reduction of maximum binding (Bmax) against RS7 [1]: 25%
Molecule: 162-46.2 (murine monoclonal antibody against human Trop-2, hybridoma ATCC HB-187)

BMax (relative luminescent units) [1]: 6020
Kd [1]: 0.49 nM
reduction of maximum binding (Bmax) against RS7 [1]: 50%
Molecule: MAB650 (murine monoclonal antibody against human Trop-2, R&D Systems)

ADCC, specific lysis of MDA-MB-468 (4-h LDH release, E:T 50:1, 33.3 nM) [2]: 8.6%
Median fluorescence intensity of anti-rH2AX-AF488 staining (dsDNA breaks), HCC1806 (Trop-2+) [2]: 546 MFI
decrease of ADCC relative to hRS7 (MDA-MB-468, NIH:OVCAR-3, BxPC-3) [2]: > 60%
γH2AX induction in BxPC-3, Mean Fluorescence Intensity [2]: 5350 MFI
γH2AX induction in BxPC-3, Percent Positive [2]: 69%
fold lower average binding level than hRS7 [3]: 2 fold
Kd [4]: 0.26 nM
Kd [5]: 1.2 nM
Kd [6]: 192 nM
fold improvement of KD against naked hRS7 [7]: 2 fold
Molecule: Sacituzumab govitecan (IMMU-132, also known as hRS7-CL2A-SN-38) (antibody)

Kd [4]: 0.51 nM
ADCC, specific lysis of BxPC-3 by PBMC (E:T 100:1, 33.3 nM) [8]: 8.5%
ADCC, specific lysis of MDA-MB-468 (4-h LDH release, E:T 50:1, 33.3 nM) [8]: 29.8%
Kd [6]: 92.4 nM
Kd [9]: 0.3 nM
B1: humanized RS7 (hRS7) anti-Trop-2 antibody, hRS7 IgG (antibody, INN chains, looked up, V domains shown, part only)
VH: QVQLQQSGSELKKPGASVKVSCKASGYTFTNYGMNWVKQAPGQGLKWMGWINTYTGEPTYTDDFKGRFAFSLDTSVSTAYLQISSLKADDTAVYFCARGGFGSSYWYFDVWGQGSLVTVSS
VL: DIQLTQSPSSLSASVGDRVSITCKASQDVSIAVAWYQQKPGKAPKLLIYSASYRYTGVPDRFSGSGSGTDFTLTISSLQPEDFAVYYCQQHYITPLTFGAGTKVEIK

γH2AX induction in BxPC-3, Mean Fluorescence Intensity [8]: 2250 MFI
γH2AX induction in BxPC-3, Percent Positive [8]: 12.7%
B2: hA20-SN-38 (anti-CD20 hA20 / veltuzumab conjugated to SN-38), non-binding control conjugate (antibody, INN chains, looked up, V domains shown, part only)
VH: QVQLQQSGAEVKKPGSSVKVSCKASGYTFTSYNMHWVKQAPGQGLEWIGAIYPGMGDTSYNQKFKGKATLTADESTNTAYMELSSLRSEDTAFYYCARSTYYGGDWYFDVWGQGTTVTVSS
VL: DIQLTQSPSSLSASVGDRVTMTCRASSSVSYIHWFQQKPGKAPKPWIYATSNLASGVPVRFSGSGSGTDYTFTISSLQPEDIATYYCQQWTSNPPTFGGGTKLEIKR
modifications: SN-38 via CL2A linker
